{"source": "patent US20220184120A1", "target": "full-length MUC1 expressed on HCT-116 cells (cleavage resistant single cell clone) (Homo sapiens (Human)) (UniProt P15941)", "experiment": "flow cytometry, HCT-MUC1-41TR cells (FIG. 36D)"}
{"substance": "VU4H5 commercially available mouse monoclonal anti-MUC1 tandem repeat antibody", "values": [{"measurement": "percent positive cells", "value": 95, "unit": "%"}]}
